This passage reports Kd and molecules bound per cell (molecules per cell) results from patent US6933132.

For experiment [1], the target named is surface of a resting T cell (unidentified binding site for soluble attractin-1). The experiment can be described thus: Scatchard analysis, 125I-labeled soluble attractin on cells, 1 hr at 4 C.
The target of experiment [2] is surface of a PHA-activated T cell (unidentified binding site for soluble attractin-1). The experiment is described as above.

For the substance “purified natural serum soluble attractin-1, 125I-labeled (from UniProt O75882 1-1267) (ligand)”, the Kd in experiment [1] and in experiment [2] was 0.005 to 0.05 nM each time. Also, the figures for the molecules bound per cell (molecules per cell) in experiment [1] and in experiment [2] were 1000 and 2000, respectively.

A word on the Kd: it is the equilibrium constant for the complex coming apart. A lower Kd goes with a tighter complex.
